“Also recorded” adds a separate entry of the source.
Assays:
Format in all cases: in vivo, mice
[1] = test system: mouse model of ATN or ischemia/reperfusion injury; assay: Kidney histology in mouse ATN model; conditions: NGAL-treated ATN kidneys vs ATN
Experimental: Male C57BL/6 mice (20-25 gr; Charles River) were anesthetized with intraperitoneal pentobarbital (50 mg/kg) and placed on a heating pad under a warming light to maintain 37© core body temperature. Kidneys were exposed through an abdominal section and the right kidney was either removed or its vascular pedicle and ureter ligated. The vascular pedicle of the left kidney or both kidneys was clamped by a microaneurysm clip (Kent Scientific) for 30 minutes after right nephrectomy. This period of ischemia generated reproducible renal injury but minimized mortality. During the procedure, PBS (0.5 ml) was used to dampen the peritoneum. The animal was closed with 5-0 Nylon. Saline, NGAL, retinol-loaded retinol binding protein (RBP), enterochelin, or desferroxamine mesylate (DFO) were injected into the peritoneum or subcutaneously 15 min. prior to ischemia or 1-2 hr after reperfusion.
After 6 or 24 hr of reperfusion, heparinized plasma, urine and kidney samples were obtained to measure NGAL (polyclonal 1:500), Heme oxygenase-1 (Stressgen, 1:2000), E-cadherin (BD Transduction Labs, 1:2000), N-cadherin (BD Transduction Labs, 1:3000) and GAPDH (Chemicon International, 1:3000) using immunoblots. Plasma was also used for creatinine and blood urea nitrogen colorimetric assays. Sagittal sections of the kidney were fixed in 4% formalin, or were snap frozen for mRNA and protein analysis. […]

endogenous NGAL = assay: Endogenous NGAL expression after exogenous NGAL (real time PCR, immunoblot); parameters: reduction of the increase in endogenous NGAL RNA / reduction of endogenous NGAL protein in the kidney: dose or concentration left out as unconfirmed
Description: (§1) After 6 or 24 hr of reperfusion, heparinized plasma, urine and kidney samples were obtained to measure NGAL (polyclonal 1:500), Heme oxygenase-1 (Stressgen, 1:2000), E-cadherin (BD Transduction Labs, 1:2000), N-cadherin (BD Transduction Labs, 1:3000) and GAPDH (Chemicon International, 1:3000) using immunoblots. Plasma was also used for creatinine and blood urea nitrogen colorimetric assays. Sagittal sections of the kidney were fixed in 4% formalin, or were snap frozen for mRNA and protein analysis. Paraffin-embedded sections (5 μm) were stained with hematoxylin-eosin or by an in situ kit (Fluorescein-TUNEL, Roche) for apoptotic nuclei or for total nuclei (Toprol, Molecular Probes). For cell proliferation analysis, BrdU was injected into the peritoneum 1 hour before sacrifice, and cryostat sections were stained with anti-BrdU (Roche) according to the manufacturer.
Total RNA was extracted from mouse kidneys using RNeasy mini kit (Qiagen) with on-column DNase digestion according to the manufacturer's instructions. The cDNA template was synthesized using Omniscript Reverse Transcriptase and oligo-dT primer (Qiagen). The PCR reaction was carried out using iQ SYBR green super mix and MyiQ single-color real-time PCR detection system (Biorad) with incubation times of 2 min at 95° C., followed by 40 cycles of 95° C./30 s and 60° C./30 s. Specificity of the amplification was checked by melting curve analysis and by agarose gel electrophoresis. Primer sequences for mouse NGAL mRNA (Genbank NM_008491) were […] (forward primer, positions 93-112) and […] (reverse, 576-557). Sequences for mouse β-actin mRNA (Genbank X03672) were […] (forward, 415-434) and […] (reverse, 696-677). Each plate included a dilution series of standard sample, which was used to determine mRNA quantities. The NGAL mRNA content was normalized by β-actin mRNA.

cortical tubules = assay: Fluorescein-TUNEL: percentage of cortical tubules with TUNEL-positive cell; conditions: 24 h after reperfusion, SEM; ischemic 11.5%, sham 0.5%
Description: as §1

tubule epithelial cells = assay: TUNEL apoptosis assay on kidney sections (nuclei per 100 cells); conditions: 24 h reflow
Experimental: Purified endotoxin-free NGAL was administered either intravenously into mice via tail vein injections, subcutaneously, or intraperitoneally. In preliminary studies, animals were treated with three different concentrations of NGAL (50, 100, or 250 μg of a 250 μg/100 solution), subjected to 30 minutes of bilateral renal artery clamping one hour later, and examined after 24 hours of reflow. […] All subsequent studies as reported here were carried out using the 250 μg dose of NGAL. Comparisons were made between five different animal groups: non-ischemic controls (n=8), ischemic controls pre-treated with saline alone (n=8), NGAL pre-treated one hour prior to renal artery clamping (n=6), NGAL treated during renal artery clamping (n=6), and NGAL treated one hour post renal artery clamping (n=6).
For the TUNEL assay to detect apoptotic nuclei, we utilized the ApoAlert DNA Fragmentation Assay Kit (Clontech). Paraffin sections were deparaffinized through zylene and descending grades of ethanol, fixed with 4% formaldehyde/PBS for 30 min at 4° C., permeabilized with proteinase K at room temperature for 15 min and 0.2% triton X-100/PBS for 15 min at 4° C., and incubated with a mixture of nucleotides and TdT enzyme for 60 min at 37° C. The reaction was terminated with 2×SSC, the sections washed with PBS, and mounted with Crystal/mount (Biomeda, Foster City, Calif.). TUNEL-positive apoptotic nuclei were detected by visualization with a fluorescent microscope. […] Merely TUNEL positive cells, in the absence of morphologic criteria, were not considered apoptotic. Slides were examined in a blinded fashion, and apoptosis was quantified by counting the number of TUNEL positive nuclei per 100 cells counted in an average of five high power (40×) fields in each section.

N-cadherin = N-cadherin immunofluorescence and immunoblot in ischemic kidney; conditions: pre-treatment with NGAL, 6 or 24 hours of reperfusion
Description: as §1

heme oxygenase-1 (HO-1) = assay: Heme oxygenase-1 immunoblot of kidney
Description: as §1

B1: NGAL: Purified endotoxin-free recombinant NGAL expressed as GST fusion protein in bacteria, thrombin cleaved (protein, UniProt P80188 21-198, looked up)
Neutrophil …: QDSTSDLIPAPPLSKVPLQQNFQDNQFQGKWYVVGLAGNAILREDKDPQKMYATIYELKEDKSYNVTSVLFRKKKCDYWIRTFVPGCQPGEFTLGNIKSYPGLTSYLVRVVSTNYNQHAMVFFKKVSQNREYFKITLYGRTKELTSELKENFIRFSKSLGLPENHIVFPVPIDQCIDG
kidney histology (tubule morphology) [1]: normal epithelial morphology was preserved in the S1 and S2 segments of the proximal tubule; also recorded: preservation of cortical tubules, but residual cortical-medullary casts | reduction of the increase in endogenous NGAL RNA (endogenous NGAL; 24 hours of reperfusion, real time PCR): 72%±16 | endogenous NGAL protein in the kidney (endogenous NGAL; NGAL-treated ischemia, ischemia 73±7): 29 ± 7 µg/g | reduction of endogenous NGAL protein in the kidney (endogenous NGAL; immunoblot): 2.5 fold | percentage of cortical tubules with at least one TUNEL-positive tubular cell (cortical tubules): 2.9%±0.9 | apoptotic tubule epithelial cells (TUNEL-positive nuclei per hundred cells) (tubule epithelial cells; NGAL during ischemia): 7.6%±0.8 | apoptotic tubule epithelial cells (TUNEL-positive nuclei per hundred cells) (tubule epithelial cells; NGAL one hour after ischemia): 8.5%±0.8 | apoptotic tubule epithelial cells (TUNEL-positive nuclei per hundred cells) (tubule epithelial cells; NGAL one hour before ischemia, saline 12.6%±2.2): 6.7%±1.6 | N-cadherin expression in ischemic kidney (N-cadherin): preserved N-cadherin immunofluorescence, enhanced the expression of full length N-cadherin and reduced the appearance of its fragment; also recorded: rescued | upregulation of HO-1 over ATN alone (heme oxygenase-1 (HO-1); ATN-injured mice, 10-100 μg NGAL, 24 hours after reperfusion): 5-10 fold | expression of HO-1 after NGAL injection (heme oxygenase-1 (HO-1); healthy mice (Sham), increasing doses of NGAL): much less than the NGAL-treated ATN-injured kidneys
